Laboratory results as given in the nanobody polyreactivity screen of Harvey et al. (2022).

Test: yeast display, Sf9 membrane polyspecificity reagent, FACS + sequencing; frameworks hold sequencing errors
In short: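 Galactose induction of a Saccharomyces cerevisiae BJ5465 synthetic nanobody display library ran 36–48 hours. The cells were then stained for 1 hour at 4 °C with 10% biotinylated, detergent-solubilized Sf9 membrane reagent, pulled down on streptavidin microbeads and FACS-sorted into low and high (top ~1%) gates on expression and reagent-binding fluorescence. Labels for polyreactivity follow the gate of origin.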

Sequence	polyreactivity (PSR sort gate)
QVQLVESGGGLVQAGGSLRLSCAASGSTFGYNAMGWYRQAPGKERELVAAITWTGASTYYADSVKGRFTISRDIAKNTVYLQMNSLKPEDTAVYYCNRVGYQSMNYWGQGTQVTVSS	low polyreactivity
QVQLVESGGGLVQAGGSLRLSCAASGSTFYSYAMGWYRQAPGKEREFVAVISWSGGRTRYADSVKGRFTISRDNAKNTVYLQMKSVKPEDTAVYYCNARKWGYSPHRKGDRHFEYWGQGTQVTVSS	low polyreactivity
QGQLVESGGGLVQAGGSLRLSCAASGFIFVPYAMGWYRQAPGKEREFVAAITASGGNTYYADSVKGRFTISRDNAKNTVYLQMNSLKPEYTAVYYCAAEISGSLESLDYWGQGTQVTVSS	low polyreactivity
QVQLVESGGGLVQAGGSLRLSCAASGRIFFYYAMGWYRQAPGKERELVAAISSGGGSTYYADSVKGRFTISRDNAKNTVYLQMNSLKPEDTAVYYCAARTYRRRYLGWSQYVGPYDYWGQVTQVTVSS	high polyreactivity
QVQLVESGGGLVQAGGSLRLSCAASGFTFPDYAMGWYRQAPGKERELVAAITSSGGSTYYADSVKGRFTISRDNAKNTVYLQMNSLKPEDTAVYYCNAYISDDRYWSPAIEEDYWGQGTQVTVSS	high polyreactivity
QVQHVESGGGLVQAGGSLRLSCAASGRIFRYNAMGWYRQAPGKERELVAAITNGGSTNYADSVKGRFTISRDNAKNTVYLQMNSLKPEDTAVYYCNAQGRRYSQRYYYWGQGTQVTVSS	high polyreactivity
QVQLVDSGGGLVQAGGNLRLSCAPSGYTFGKYAMGWYRQAPGKERELVAGISSRGGSTYYADSVKGRFTISRDNAKNTVYFQMNSLKPEDTAVYYCAAVAYTGGPRKLGFYYWGQGTQVTVSS	high polyreactivity
QVQLVESGGGLVQAGGSLRLSCAASGRIFRYYAMGWYRQAPGKERELVARISWSGGDTYYADSVKGRFTISRDNAKNTVYLQMNSLKPEDTAVYYCNAEAWYSVEYDYWGQGTQVTVSS	low polyreactivity
QVQLEESGGGLDQAGGSLRLSCAASARTFDGYAMGWYRQAPGKERELVAAISSGDSTYYADSVKGRFTISRDKAKNTVYLQMNSLKPEDTAVYYCAASFYYSSYGYWGQGTQVTVSS	low polyreactivity
QVQLVESGGGLGQAGGSLRLSCAASGITFGDYAMGWYIQAPGKERELVAAISTSGVRTYYADSVKGRFTISRDNAKNTVYLQMNSLKTEDTAVYYCAAKYYGEMYYWGQVTQVTVSS	low polyreactivity
QVQLVESGGGLVQAGGSLRLSCAASGSIFHYYAMGWYRQAPGKERELVAAISWSGGRTYYADSVKGRFTISRDNAKNTVYLQMNSLKPEDTAVYYCAADYDGSFNTPYLLDPYDYWGQGTQVTVSS	high polyreactivity
QVQLGDSGGGLVQAGGSLRLSCAASGFSIFTYAMGWYRQAPGKERELVAAITTGGSTNYADSVKGRFTISRDNAKNTVYLKMNSLKPEDTALYYCAALRVSVILLVRLDYWGQGTQVTVSS	low polyreactivity
QVQLVESGGGLVQAGGSLRLSCAASGGIFRGYAMGCYRQAPGKERELVATITFSGTSTYYADSVKGRFTISRDNAKNTVYLQMNSLKPEDTAVYYCNADWWFKYDYWGQGTQVTVSS	low polyreactivity
QVQLVESGGGLVQAGGSLRLSCAASGFTFPGYAMGWYRQAPGKERKLVAAITGSGGRTYYADSVKGRFTISRDNAKNTVYLQMNSLKPEDTAVYYCLARSYYNWYDYWGQGTQVTVSS	high polyreactivity
QVQLVESGGGLVQAGGSLRLSCAASGRIFQKYAMGWSRQAPGKERELVAAISYGGGRTYYADSVKGRFTISRDNAKNTVYLQMNSLKPEDTAVYYCATDYKYAAPTVIESDYWGQGTQVTVSS	high polyreactivity
QVQLVESGGCLVQAGGSLRLSCAATGIIFDGYAMGWYRQAPGKERELVAAISWSGGSTYYADSVKGRFTISRDNAKNTVYLQMNSLKPEDTAVYYCAAALPGWYHDDYDYWGQGTQVTVSS	low polyreactivity
QVQLVESGGGLVQAGGSLRLSCAASGFIFRLYTMGLYRQAPGKERELVARITRGDSTNYADSVKGRFTISRDNAQNTVYLQMNCLYPEDTAVYYCAKLHRGLPYYSFYRGYYYWGQVTQVTVSS	low polyreactivity
QVQLVESGGGLVQAGGSLRLSCAASGLTFEYNAMGWYRQAPGKERELVATISNGGITSYADSVKGRFTISRDNAKNTVYLQMNSLKPEDTAVYYCAASYADSPTTDQLWLEYDSWGQGTQVTVSS	low polyreactivity
QVQLVESGGGLVQAGGSLRLSCAASGITVALNAMGWYRQAPGKERELVAAISWSGDSTYYADSVKGRFTISRDNAKNTVYLQMNSLKPEDTAVYYCNTYPRRFFYSQRYDYWGQGTQVTVSS	low polyreactivity
QVQLVESGGGLVQAGGSLRLSCAASGSIIHSYAMGWYRQAPGKERELVAAISRNGGSTYYADSVKGRFTISRDNAKITVYLQMNSLKPEDTAVYYCAKTYSQTWRYGYWGQGTQVTVSS	high polyreactivity
QDQLVESGGGLVQAGGSLRLSCAASGLTFKRNAMGWYRQAPVKERELVAAIRYSTDSTNYADSVKGRFTISRDNAKNTVYLQLNSMNPEDTAVYYCAKDKQDYEYWGQGTQVTVSS	low polyreactivity
QVQLVESGGGLVHAGGSLRLSCAASGGIFSWNTMGWYRQAPGKERELVAAINWSSGRTYYADSVKGRFTISRDNAKYTVYLQMNSLKPEDTAVYYCAAKYYGSRKYDYWGQGTQVTVSS	high polyreactivity

Sequence	polyreactivity (PSR sort gate)
QVQLVESGGGLVQAGGSLRLSCAASGRTFHYNVMGWYRQAPGKESELVAASTNTGGSTYYADSVKGRFTISRDNAKNTVYLQMNSLKPEDTAVYYCAAVIWGRRYGAYPYEYWGQGTQVTVSS	low polyreactivity
QVQLVESGGGLVQAGGSLRLSCAASGFIFGVNAMVWYRQAPGKERELVAAITRNGGSTYYADSVKGRFTISRDNAKNTVYLQMKSLKPEDTAVYYCAKYVRRAPSTFDVDYWGQGTQVTVSS	high polyreactivity
QVQLVESVGGLVQAGGSLRLSCAASGRTFFYNAMGWYRQAPAKERELVAAIDWSGDSTYYADSVKGRFTISRDNAKNTVYLQMNSLKPEDTAVYYCAARRKNRRDYDYYYWGQGTQVTVSS	high polyreactivity
QVQLVESGGGLVQAGGSLRLSCAASGFIFSAYAMGWYRQAPGKERELVAAITKRGGTTYYADSVKGRFTISRDNAKNTVYLQMNSLKPEDTAVYYCATRQLSKVKDMDYWGQGTQVTVSS	high polyreactivity
QVQLVESGGGLVQAGGRLRLSCAASGSTFAWSAMGWYRQAPGKERELVAGIWNTGRTYYADSVKGRFTISRDNAKNTVYLQMNSLKPEDTAVYYCAALYNSPNVTYYYWGQGTQVTVSS	high polyreactivity
QVQLVESGGGIVQAGGSLRISCAASGRIFSTYAMGWYRQAPGKERELVAAINKIGGSTYYADSVKGRFTISRDNAKNTVYLQMNSLKPEDTAVYYCAADAPYYPVRRYYYWGQGTQVTVSS	low polyreactivity
QVQLVESGGGLVQAGGSLRLSCAASGRIFNVYAMGWYRQAPGKERELVASITSAGSTYYADSVKGRFTISRDNAKNTVYLQMNSLKPEDTPVYDCAADSYSVYYYTYDSWGQGTQVTVSS	low polyreactivity
QFQLVESGGGLVQAGGSLRLSCAASGRIFGGYAMGWYRQAPVKERELVAAIRDSGRTYYADSVKGRFTISRDNAKNTVYLQMNSLKQEDTAVYYFAADAHSTYAPFRWYDYCGQGTQVTVSS	low polyreactivity
QVQLVESGGGLVQAGGSLRLSCAASGSTFRYYGMGWYRQAPGKERELVADITSGGTTDYADSVKGRFTISRDNAKNTVYLQMNSLKPEDTAVYYCAAGRWYKRQSTWGFGLDHDYWGQGTQVTVSS	low polyreactivity
QVQLVESGGGLVQAGGSLRLSCAASGSTIRVYGMGWYRQAPGKERELVAAIRWIGGRTYYADSVKARFTISRDNAKNTVYLQMNSLKPEDTAVYYCNARAGPVRFDYWGQGTQVTVAS	low polyreactivity
QVQLVESGVGLVQAGGSLRLSCAASGSIITPYAMGWYRQAPGKERELVAAITSGGSTYADSVKGRFTISRDNAKNTVYLQMNSLKPEDTAVYYCAADRSYVYAGADMYYWGQGTQVTVSS	low polyreactivity
QVQLVESGGGLVQAGGRLRLSCADSGLIIYYYAMGWYRQAPGKEREFVAAITSSGGSTSYADSVKGRFTISRDNAKNTVYLQMNSLKPEDTAVYYCAARSKSEGGYWGQCTQVTVSS	high polyreactivity
QVQLVESGGGLVQAGGSLRLSCAASGSTSYTNAMGWYRQAPGKERELVAGITRSGDSTYYADSVKGRFTISRDNAKNTVYLQMNSLKPEDTAVYYCAAEYSGQYYSPVSYLYDYWGQGTQVTVSS	high polyreactivity
QVQLVESGGGLVQAGGSLRLSCAASGPIFWGYAMGWYRQAPGKERELVAAITSGGNTNYADSVKGRFTISRDNAKNTVYLQMISLKPEDTAVSYCAKRTRPWRDFDYWGQGTQVTVSS	low polyreactivity
QVQLVESGGGLVQAGGSLRLSCAASGRIFQKNAMGWYRQPPGKERELVAAISGSGSTTNYADSVKGRFTISRDNAKNTVDLQMNSLKPEDTAVFYCGTGKRGVSGRGFRYDYWGQGTQVTVSS	high polyreactivity
QVQLVESGGGLVQAGGSLRLSCAASGSIFEYYTMGWYIQAPGKERELVAGISWSGGSSYYADSVKGRFTISRDNAKNTVYLQMNSLKPEDTAVYYCAAGRTGWYWDSGSTYRYGYGYWGQGTQVTVSS	high polyreactivity
QVQLVESGGGLVQAGGSLRLSCAASGRIFVKYAMGWYRQAPGKERELVAAIRSGGSTYYADSVKGRFTISRDNAKNTVYLQMNRLKPEDTAVYYCAAERNKHHYYTEPYDYWGQGTQVTVSS	low polyreactivity
QVQLVESGGGLVQAGGSLRLSCAASGRIFGSYAMGWYRQAPGKERELVASITSSGGSTYYADSVKGRFTISRDNAKNTVYLQMNSLKPEDTAVYYCAAGCAYLDAFYPYGYWGQGTQVTVSS	low polyreactivity
QVQIGESGGGLVQAGGSLRLSCAASGSIIVGYAMGWYRQAPGKEREVVAAISKRGTSTYYADSVKGRFTISRDNAKNTVYLQMNSLKPEETAVYDCNALDLVNHGWTERLDQDYYYWGQGTQVTVSS	high polyreactivity
QVQLVESGGGIVQAGGSLRLSCAASGITFGRNTMGWYRQAPGKERELVAAIDSGGNTYADSVKGRFTISRDNAKNTVYLQMNSLKPEDTAVYYCAVDGGEFSSYGYWGQGTQVTVSS	low polyreactivity
QVQLVESGGGLVQAGGRLRLRCAASGSIFEPNAMGWYRQSPWKERELVATIRDSGGRTYYADSVKGRFTISRDNAKNTVYLQMNSLKPEDTAVYYCAARRYLGWFSYRLYDYWGQGTQVTVSS	high polyreactivity
